Experimental data reported in article PMC7000732, “Bridging non-overlapping reads illuminates high-order epistasis between distal protein sites in a GPCR” (Nature Communications, 2020).
Residue numbers refer to the chain shown, from its start. Numbers in names are those of the source. Where “and” joins values, the source holds several entries; their conditions need not be identical. Equal values may be shown once. Read-outs that look alike come from different tables or passages of the source.

B1: TGRIA: Variant GRIA (T88/Q89G/W246R/L249I/H250A) of human adenosine A2a receptor (protein, UniProt P29274 1-412, looked up, variant Q89G W246R L249I H250A)
Adenosine receptor A2a: MPIMGSSVYITVELAIAVLAILGNVLVCWAVWLNSNLQNVTNYFVVSLAAADIAVGVLAIPFAITISTGFCAACHGCLFIACFVLVLTGSSIFSLLAIAIDRYIAIRIPLRYNGLVTGTRAKGIIAICWVLSFAIGLTPMLGWNNCGQPKEGKNHSQGCGEGQVACLFEDVVPMNYMVYFNFFACVLVPLLLMLGVYLRIFLAARRQLKQMESQPLPGERARSTLQKEVHAAKSLAIIVGLFALCRLPIAIINCFTFFCPDCSHAPLWLMYLAIVLSHTNSVVNPFIYAYRIREFRQTFRKIIRSHVLRQQEPFKAAGTSARVLAAHGSDGEQVSLRLNGHPPGVWANGSAPHPERRPNGYALGLVSGGSAQESQGNTGLPDVELLSHELKGVCPEPPGLDDPLAQDGAGVS
B2: SLNIG: A2aR variant; letters are residues at T88, Q89, W246, L249, H250 (protein, UniProt P29274 1-412, looked up, variant T88S Q89L W246N L249I H250G)
Adenosine receptor A2a: B1 Adenosine receptor A2a with T88S, G89L, R246N, A250G
B3: C28A/C82A/C128A/C185A/C245S/C254A/C394S: inactive A2aR variant that does not bind ligand (protein, UniProt P29274 1-412, looked up, variant C28A C82A C128A C185A C245S C254A C394S)
Adenosine receptor A2a: MPIMGSSVYITVELAIAVLAILGNVLVAWAVWLNSNLQNVTNYFVVSLAAADIAVGVLAIPFAITISTGFCAACHGCLFIAAFVLVLTQSSIFSLLAIAIDRYIAIRIPLRYNGLVTGTRAKGIIAIAWVLSFAIGLTPMLGWNNCGQPKEGKNHSQGCGEGQVACLFEDVVPMNYMVYFNFFAAVLVPLLLMLGVYLRIFLAARRQLKQMESQPLPGERARSTLQKEVHAAKSLAIIVGLFALSWLPLHIINAFTFFCPDCSHAPLWLMYLAIVLSHTNSVVNPFIYAYRIREFRQTFRKIIRSHVLRQQEPFKAAGTSARVLAAHGSDGEQVSLRLNGHPPGVWANGSAPHPERRPNGYALGLVSGGSAQESQGNTGLPDVELLSHELKGVSPEPPGLDDPLAQDGAGVS
B4: TSWLH: single-residue mutant Q89S of A2aR, the most abundant variant in PS4 (protein, UniProt P29274 1-412, looked up, variant Q89S)
Adenosine receptor A2a: B1 Adenosine receptor A2a with G89S, R246W, I249L, A250H

Legend:
[1] = FACS-based screen of A2aR library with deep sequencing (BRIDGE): variant enrichment; type: cell-based, Saccharomyces cerevisiae
[2] = Whole-cell saturation radioligand binding; set-up: species or system Saccharomyces cerevisiae; settings: for Kd: 3H-NECA, whole yeast cells, pH 5.8, mean ± SD of three biological replicates, read-out: equilibrium dissociation constant (Kd); for CPM: raw replicate counts, empty vector not subtracted; for fold greater 3H-NECA binding affinity than wild-type receptor: ratio of Kd to wild-type
[3] = Fluorescent ligand binding measured by flow cytometry; set-up: species or system Saccharomyces cerevisiae; settings: for fluorescent ligand binding signal / % pop above background / Mean Singlet Fluorescence Intensity (530 nm): replicates; for % pop above background / Mean Singlet Fluorescence Intensity (530 nm): incubated with FITC-APEC
[4] = naive to PS4 library (PS4/naive), high-stringency gating, 10 µM FITC-APEC

Molecule	Enrichment rate [1, 4]	Kd [2] [nM]	CPM ([2]; [3H-NECA] 1.6 nM)	CPM ([2]; [3H-NECA] 3.1 nM)	CPM ([2]; [3H-NECA] 6.3 nM)	CPM ([2]; [3H-NECA] 12.5 nM)	CPM ([2]; [3H-NECA] 25 nM)	CPM ([2]; [3H-NECA] 50 nM)	CPM ([2]; [3H-NECA] 100 nM)	CPM ([2]; [3H-NECA] 200 nM)	CPM ([2]; [3H-NECA] 400 nM)	fold greater 3H-NECA binding affinity than wild-type receptor [2]	Fold increase in enrichment rate over WT [1] [fold]	also measured
WT: wild-type human adenosine A2a receptor, decahistidine-tagged, expressed in yeast from centromeric pYC vector [reference compound]	0.3	39.2 ± 4.8	64 CPM and 47 CPM and 35 CPM	108 CPM and 89 CPM and 54 CPM	192 CPM and 223 CPM and 155 CPM	331 CPM and 408 CPM and 255 CPM	470 CPM and 533 CPM and 388 CPM	546 CPM and 694 CPM and 708 CPM	805 CPM and 900 CPM and 958 CPM	1026 CPM and 1370 CPM and 1371 CPM	1047 CPM and 2304 CPM and 1995 CPM	–	–	Enrichment rate ([1]; naive to PS4 population): 0.30 fold; fluorescent ligand binding signal ([3]; [FITC-APEC] 10 nM, Supplementary Figure 1 source data, listed as pYC A2a10H): 101 and 100 and 99; fluorescent ligand binding signal ([3]; [FITC-APEC] 10 nM, Supplementary Figure 4 source data, listed as pYC A2a10H): 104 and 103 and 102; fluorescent ligand binding signal ([3]; [FITC-APEC] 100 nM, Supplementary Figure 1 source data, listed as pYC A2a10H): 111 and 108 and 134; fluorescent ligand binding signal ([3]; [FITC-APEC] 100 nM, Supplementary Figure 4 source data, listed as pYC A2a10H): 114 and 110 and 133; fluorescent ligand binding signal ([3]; [FITC-APEC] 1000 nM, Supplementary Figure 1 source data, listed as pYC A2a10H): 208 and 180 and 189; fluorescent ligand binding signal ([3]; [FITC-APEC] 1000 nM, Supplementary Figure 4 source data, listed as pYC A2a10H): 206 and 184 and 191; fluorescent ligand binding signal ([3]; [FITC-APEC] 10000 nM, Supplementary Figure 1 source data, listed as pYC A2a10H): 370 and 353 and 396; fluorescent ligand binding signal ([3]; [FITC-APEC] 10000 nM, Supplementary Figure 4 source data, listed as pYC A2a10H): 377 and 330 and 373; fluorescent ligand binding signal ([3]; [FITC-APEC] 50000 nM, Supplementary Figure 1 source data, listed as pYC A2a10H): 442 and 457 and 477; fluorescent ligand binding signal ([3]; [FITC-APEC] 50000 nM, Supplementary Figure 4 source data, listed as pYC A2a10H): 354 and 386 and 364
pITy A2a10H: decahistidine-tagged wild-type A2aR expressed in yeast from multi-site-integrating pITy vector	–	–	–	–	–	–	–	–	–	–	–	–	–	% pop above background ([3]; +raffinose): 97.3% and 99.1% and 99.7%; Mean Singlet Fluorescence Intensity (530 nm) ([3]; +raffinose): 1177 a.u. and 1389 a.u. and 1621 a.u.; % pop above background ([3]; -raffinose): 88.4% and 92.7% and 86.6%; Mean Singlet Fluorescence Intensity (530 nm) ([3]; -raffinose): 853 a.u. and 1341 a.u. and 1013 a.u.; fluorescent ligand binding signal ([3]; [FITC-APEC] 10 nM, Supplementary Figure 1 source data): 102 and 103 and 101; fluorescent ligand binding signal ([3]; [FITC-APEC] 100 nM, Supplementary Figure 1 source data): 124 and 112 and 118; fluorescent ligand binding signal ([3]; [FITC-APEC] 1000 nM, Supplementary Figure 1 source data): 357 and 323 and 352; fluorescent ligand binding signal ([3]; [FITC-APEC] 10000 nM, Supplementary Figure 1 source data): 1097 and 999 and 1047; fluorescent ligand binding signal ([3]; [FITC-APEC] 50000 nM, Supplementary Figure 1 source data): 1681 and 1267 and 1322
B1	517	10.9 ± 0.8	148 CPM and 222 CPM and 182 CPM	317 CPM and 337 CPM and 348 CPM	477 CPM and 597 CPM and 529 CPM	612 CPM and 847 CPM and 800 CPM	815 CPM and 1157 CPM and 1066 CPM	1152 CPM and 1391 CPM and 1352 CPM	1488 CPM and 1655 CPM and 1630 CPM	1857 CPM and 2089 CPM and 2112 CPM	2326 CPM and 2813 CPM and 3169 CPM	fourfold	–	Fold increase in enrichment rate over WT ([1]; naive to PS4 library, WT rate 0.30): 1722 fold
B2	–	10.7 ± 0.6	138 CPM and 195 CPM and 220 CPM	282 CPM and 376 CPM and 382 CPM	494 CPM and 563 CPM and 618 CPM	783 CPM and 767 CPM and 883 CPM	861 CPM and 1199 CPM and 1152 CPM	1216 CPM and 1410 CPM and 1521 CPM	1341 CPM and 1416 CPM and 1794 CPM	1692 CPM and 1849 CPM and 2050 CPM	2037 CPM and 2595 CPM and 2482 CPM	–	2635	Enrichment rate [1]: 791
B3	–	–	–	–	–	–	–	–	–	–	–	–	–	fluorescent ligand binding, result in words ([3]; FITC-APEC, yeast cells): does not bind ligand
B4	–	11.8 ± 1	269 CPM and 283 CPM and 176 CPM	574 CPM and 478 CPM and 918 CPM	877 CPM and 818 CPM and 594 CPM	1293 CPM and 1161 CPM and 783 CPM	1556 CPM and 1523 CPM and 1194 CPM	2099 CPM and 1735 CPM and 1402 CPM	2533 CPM and 2165 CPM and 1719 CPM	2889 CPM and 2229 CPM and 2151 CPM	3382 CPM and 2947 CPM and 2944 CPM	fourfold	1121	–
